Results: patent publication US20260201327A1

Biological target: CD40 in the antibody expressing cells (rabbit plasmablasts from peripheral blood) (rabbit)
Assay: cell-based or functional assay

Row | B cell growth after 7 days, batch sort in BM1, Fc-CD40-L against LZ-CD40-L (18 kDa) (% higher than LZ-CD40-L (18 kDa)) | B cell growth after 7 days, batch sort in BM1, cytokines + CD40-L construct 7.5 ug/ml, against the reference EL4-B5 + TSN (% more than reference) | cell growth after 7 days, batch sort in BM1, cytokines + Fc-CD40-L 7.5 ug/ml (#4) against the reference TSN + EL4-B5 (% higher than reference) | cell growth after 7 days, batch sort in BM2, 2.5 ug/ml Fc-CD40-L (#12) against 7.5 ug/ml (#10) [times lower] | cell growth after 7 days, batch sort in BM2, 5.0 ug/ml Fc-CD40-L (#11) against 7.5 ug/ml (#10) [times lower] | cell growth after 7 days, batch sort in BM2, cytokines + 2.5 ug/ml Fc-CD40-L (#12) against the reference #9 (% lower than reference) | cell growth after 7 days, batch sort in BM2, cytokines + 5.0 ug/ml Fc-CD40-L (#11) against the reference #9 (% lower than reference) | cell growth after 7 days, batch sort in BM2, cytokines + 7.5 ug/ml Fc-CD40-L (#10) against the reference TSN + EL4-B5 (#9) (% higher than reference) | B cell growth after 7 days, batch sort in BM1, cytokines + CD40-L construct 7.5 ug/ml, against the reference EL4-B5 + TSN (% of reference) | DoE parameter estimate for plasmablast proliferation (cell number after 7 days, 50 cells per well, feeder cell and TSN replacement) | Substance
1 | 32 | 43 | 23 | 1.4 | 1.1 | 27 | 5 | 6 |  |  | Fc-CD40-L (human IgG1-Fc fragment linked to the 18 kDa rabbit CD40-L fragment) (Fc fusion)
2 |  |  |  |  |  |  |  |  | 68 | 139 | LZ-CD40-L EctoD (ligand)
